From patent US20230037815A1 (CULLINAN THERAPEUTICS, published 2023) come the findings set out here.

First the molecules themselves.
B1: CNG-CD19-1 (antibody, V domains shown)
VH: QVQLVQSGAEVKKPGASVKVSCKASGYTFTDYIMHWVRQAPGQGLEWMGYINPYNDGSKYTEKFQGRVTMTSDTSISTAYMELSRLRSDDTAVYYCARGTYYYGPQLFDYWGQGTTVTVSS
VL: DIVMTQTPLSLSVTPGQPASISCKSSQSLETSTGTTYLNWYLQKPGQSPQLLIYRVSKRFSGVPDRFSGSGSGTDFTLKISRVEAEDVGVYYCLQLLEDPYTFGQGTKLEIK
notes: tested as IgG; also called parental antibody
B2: CNG-CD19-101 (antibody, V domains shown)
VH: B1 VH with T28D, E62D, G66E, Q106E
VL: B1 VL with S32T, V56A
notes: tested as IgG produced in yeast
B3: CNG-CD19-110 (antibody, V domains shown)
VH: B1 VH
VL: B1 VL with V56S, Y101P
notes: as for B2
B4: CNG-CD19-103 (antibody, V domains shown)
VH: B1 VH
VL: B1 VL with S32A, K58R, T102S
notes: as for B2
B5: CNG-CD19-106 (antibody, V domains shown)
VH: B1 VH with T28D, K59E
VL: B1 VL with S32A, K58R
notes: as for B2
B6: CNG-CD19-109 (antibody, V domains shown)
VH: B1 VH with T28D, M34V, K59L
VL: B1 VL with S28Q, V56A, T102S
notes: as for B2
B7: CNG-CD19-107 (antibody, V domains shown)
VH: B1 VH with T28D, G66H
VL: B1 VL with K58R
notes: as for B2
B8: CNG-CD19-105 (antibody, V domains shown)
VH: B1 VH with T28E, Q65E, Q106E
VL: B1 VL with S28R, K58R, Y101P
notes: as for B2
B9: CNG-CD19-102 (antibody, V domains shown)
VH: B1 VH with T28E, G66P
VL: B1 VL
notes: as for B2
B10: CNG-CD19-104 (antibody, V domains shown)
VH: B1 VH with T28D, M34V, Q106E
VL: B1 VL with S26G, K58R
notes: as for B2
B11: CNG-CD19-108 (antibody, V domains shown)
VH: B1 VH with T28D, M34V
VL: B1 VL with S32V, Y101P
notes: as for B2
B12: CNG-CD19-7 (antibody, V domains shown)
VH: QVQLQESGPGLVKPSQTLSLTCTVSGGSISTSGMGVGWIRQHPGKGLEWIGHIWWDDDKRYNPALKSRVTISVDTSKNQFSLKLSSVTAADTAVYYCARMELWSYYFDYWGQGTLVTVSS
VL: EIVLTQSPATLSLSPGERATLSCSASSSVSYMHWYQQKPGQAPRLLIYDTSKLASGIPARFSGSGSGTDFTLTISSLEPEDFAVYYCFQGSVYPFTFGQGTKLEIK
notes: as for B1
B13: CNG-CD19-704 (antibody, V domains shown)
VH: QVQLQESGPGLVKPSQTLSLTCTVSGGSIASGMGVGWIRQHPGKGLEWIGHIWWDDDKRYNPALKSRVTISVDTSKNQFSLKLSSVTAADTAVYYCARMELWSYYFDGWGQGTLVTVSS
VL: B12 VL
notes: as for B2
B14: CNG-CD19-710 (antibody, V domains shown)
VH: B12 VH with G27V, G33S, I53A, Y109P
VL: B12 VL with V29F
notes: as for B2
B15: CNG-CD19-702 (antibody, V domains shown)
VH: B12 VH with I29T, G37S, A64V, Y109P
VL: B12 VL
notes: as for B2
B16: CNG-CD19-709 (antibody, V domains shown)
VH: B12 VH with G33T, H52F, A64N, I71M, Y109P
VL: B12 VL with S30G, S55F
notes: as for B2
B17: CNG-CD19-701 (antibody, V domains shown)
VH: B12 VH with G33T, H52F, A64N, I71M
VL: B12 VL with S30G
notes: as for B2
B18: CNG-CD19-703 (antibody, V domains shown)
VH: B12 VH with G33T, H52F, A64N, I71M, D108E
VL: B12 VL
notes: as for B2
B19: CNG-CD19-706 (antibody, V domains shown)
VH: B13 VH with G36S, G108P
VL: B12 VL with S30G
notes: as for B2
B20: CNG-CD19-705 (antibody, V domains shown)
VH: B12 VH
VL: B12 VL with S30G, K52S
notes: as for B2
B21: CNG-CD19-707 (antibody, V domains shown)
VH: B12 VH with G33T, H52F, A64N, I71M, Y109P
VL: B12 VL with S30G
notes: as for B2
B22: CNG-CD19-708 (antibody, V domains shown)
VH: B12 VH with G33T, H52F, A64N, I71M, Y109P
VL: B12 VL with S30G, A54S
notes: as for B2

Substitutions are numbered along the chain they refer to.

The target of the first assay is T1, human CD19 on CHO cells (human, UniProt P15391 20-556).
T1 construct: whole, on cells; also called Cells Expressing Human CD19; CHO cells overexpressing the antigen
T1 sequence (looked up): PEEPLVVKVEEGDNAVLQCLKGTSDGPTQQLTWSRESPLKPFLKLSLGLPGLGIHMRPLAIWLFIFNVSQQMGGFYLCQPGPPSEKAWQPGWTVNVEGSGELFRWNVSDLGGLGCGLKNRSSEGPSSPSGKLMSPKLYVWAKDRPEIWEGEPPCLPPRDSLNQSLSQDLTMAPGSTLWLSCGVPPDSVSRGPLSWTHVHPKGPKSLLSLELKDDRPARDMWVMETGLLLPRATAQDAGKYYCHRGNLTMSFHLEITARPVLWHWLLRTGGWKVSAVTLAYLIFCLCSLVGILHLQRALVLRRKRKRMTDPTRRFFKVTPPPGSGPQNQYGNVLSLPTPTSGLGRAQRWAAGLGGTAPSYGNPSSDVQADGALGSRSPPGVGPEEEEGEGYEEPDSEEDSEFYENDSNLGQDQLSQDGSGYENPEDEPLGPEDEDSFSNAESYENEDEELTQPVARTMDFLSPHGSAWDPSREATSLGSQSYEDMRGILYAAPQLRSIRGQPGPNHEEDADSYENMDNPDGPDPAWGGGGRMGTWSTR
Briefly: flow cytometry, CHO cells, 100 nM IgG. How it is done:
The binding affinity of the antibodies to CD19 expressed on the cell surface was also measured. Briefly, approximately 100,000 Chinese hamster overy (CHO) cells overexpressing the antigen were washed with wash buffer and incubated with 100 μl 100 nM IgG for 15 minutes at room temperature. Cells were then washed twice with wash buffer and incubated with 100 μl of 1:100 Human-PE for 15 minutes on ice. Cells were then washed twice more with wash buffer and analyzed on a FACS Canto II analyzer (BD Biosciences).
(In general: In flow cytometry, cells or beads pass a laser one at a time.)
For B1, the “Binding to Cells Expressing Human CD19 (FOB)” value (“Binding” below) was 267 FOB.
As to B2, the “Binding” value is 296 FOB.
On to B3, for which the “Binding” value is 293 FOB.
Still for that read-out and setting: with B4 the figure was 286 FOB.
Turning to B5, the “Binding” value was 354 FOB.
On to B6, for which the “Binding” value was 334 FOB.
Consider B7, for which the “Binding” value is 315 FOB.
For B8, the “Binding” value was found to be 351 FOB.
On to B9, for which the “Binding” value worked out at 258 FOB.
Regarding B10, the “Binding” value came out at 327 FOB.
With B11, the “Binding” value amounted to 319 FOB.
For the molecule B12, the “Binding” value came to 71 FOB.
On the same count and under the same terms, in the case of B13 it was 140 FOB; in that of B14, 153 FOB.
For B15, the “Binding” value was determined as 180 FOB.
As to B16, the “Binding” value amounted to 234 FOB.
On to B17, for which the “Binding” value turned out to be 195 FOB.
On to B18, for which the “Binding” value is 135 FOB.
For B19, the “Binding” value stood at 241 FOB.
Regarding B20, the “Binding” value was 105 FOB.
The same measure, in the same setting: in the case of B21 it was 237 FOB.
The same measure, in the same setting: with B22 the figure was 210 FOB.

In the next assay the target is T2, human CD19 (human, UniProt P15391 20-291, biotinylated in the Biacore assay of Table 11).
T2 construct: also called isolated CD19; Human CD19 Protein
T2 sequence (looked up): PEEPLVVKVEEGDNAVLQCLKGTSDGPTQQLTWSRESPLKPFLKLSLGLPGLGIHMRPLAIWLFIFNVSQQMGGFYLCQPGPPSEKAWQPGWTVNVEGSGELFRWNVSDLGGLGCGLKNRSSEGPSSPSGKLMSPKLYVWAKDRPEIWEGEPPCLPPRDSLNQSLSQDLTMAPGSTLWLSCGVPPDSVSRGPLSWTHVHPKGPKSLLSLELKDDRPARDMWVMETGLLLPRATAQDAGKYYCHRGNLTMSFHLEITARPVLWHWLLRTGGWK
Nature of the assay: Octet HTX (ForteBio), IgG on AHC sensor, 1:1 fit. Here is the method: The binding affinity of the antibodies to isolated CD19 was measured by […] using a ForteBio Octet HTX system as previously described (see, e.g., Estep et al, High throughput solution-based measurement of antibody-antigen affinity and epitope binning. Mabs 5(2), 270-278 (2013)). Briefly, ForteBio affinity measurements were performed by loading IgGs on-line onto anti-hIgG Fc Capture (AHC) sensors. The sensors were equilibrated off-line in assay buffer for 30 minutes and then monitored on-line for 60 seconds for baseline establishment. The sensors with loaded IgGs were exposed to 100 nM […] for 3 minutes, and subsequently transferred to assay buffer for 3 minutes for off-rate measurement. All kinetics were analyzed using the 1:1 binding model.
Turning to B1, binding was put at a Kd of 346 pM and the koff (in general, a measure of how fast the partners let go of each other) was determined as 0.000114 s⁻¹.
Consider B2, for which the Kd – broadly, the constant that tells how readily two partners part at equilibrium – turned out to be 144 pM and the koff is 5.72e-05 s⁻¹.
B3 came in with an equilibrium dissociation constant (Kd) of 353 pM and a koff of 0.000121 s⁻¹.
In turn, B4 had a dissociation constant (Kd) of 106 pM and an off-rate (koff) of 4e-05 s⁻¹.
As to B5, the Kd came to 189 pM and the koff was 0.000114 s⁻¹.
As to B6, binding was put at a Kd of 144 pM and the koff stood at 4e-05 s⁻¹.
Take B7: binding was characterised by a dissociation constant (Kd) of 277 pM and the koff was found to be 5.71e-05 s⁻¹.
In turn, B8 came in with an equilibrium dissociation constant (Kd) of 164 pM and a koff of 8.28e-05 s⁻¹.
Taken in the same sequence, the figures for B9 were 298 pM and 9.12e-05 s⁻¹.
Turning to B10, the dissociation constant (Kd) came out at 144 pM and the off-rate (koff) came to 6e-05 s⁻¹.
Turning to B11, the dissociation constant (Kd) was 164 pM and the off-rate (koff) came out at 5.26e-05 s⁻¹.
Consider B12, for which binding was characterised by a dissociation constant (Kd) of 2250 pM and the off-rate (koff) was 0.000396 s⁻¹.
B13 showed a Kd of 367 pM and an off-rate (koff) of 0.000101 s⁻¹.
Taken in the same sequence, the figures for B14 were 135 pM and 4e-05 s⁻¹.
In the same order, the values of B15 are 500 pM and 0.000175 s⁻¹.
Molecule B16 registered a dissociation constant Kd of 107 pM and an off-rate constant (koff) of 4.6e-05 s⁻¹.
On to B17, for which the equilibrium dissociation constant (Kd) is 187 pM and the koff worked out at 7.05e-05 s⁻¹.
On to B18, for which the equilibrium dissociation constant (Kd) was determined as 289 pM and the off-rate constant (koff) stood at 8.19e-05 s⁻¹.
The molecule B19 displayed a Kd of 85.9 pM and a koff of 4e-05 s⁻¹.
B20 returned an equilibrium dissociation constant (Kd) of 248 pM and an off-rate (koff) of 4.7e-05 s⁻¹.
Consider B21, for which the Kd is 104 pM and the koff turned out to be 4.66e-05 s⁻¹.
B22 displayed a Kd of 156 pM and a koff of 6.69e-05 s⁻¹.
